Experimental data from publication PMC6638984, “Increased association between Epstein-Barr virus EBNA2 from type 2 strains and the transcriptional repressor BS69 restricts EBNA2 activity” (PLoS Pathogens, 2019).

B1: type 2 EBNA2 polypeptide T2 EBNA2_(348-422) [Epstein-Barr virus type 2 (AG876)] / BS69 coiled-coil MYND domain (BS69_(CC-MYND), amino acids 480-602) [human] (parent)
chain 1: SMPQLSPVVSLHQGQGPENSPTPGPSTAGPVCRVTPSATPDISPIHEPESSDSEEPPFLFPSDWYPPTLEPAELD
chain 2: DRMKSDHKRETERVVREALEKLRSEMEEEKRQAVNKAVANMQGEMDRKCKQVKEKCKEEFVEEIKKLATQHKQLISQTKKKQWCYNCEEEAMYHCCWNTSYCSIKCQQEHWHAEHKRTCRRKR

Variants of: B1
Experiment: ITC
Conditions: with BS69 coiled-coil MYND domain (BS69_(CC-MYND), amino acids 480-602) [human], two-site model, 29 injections of 1.3 μl 0.3 mM EBNA2 polypeptide and 0.1 mM BS69CC-MYND in the cell
[1] = binding event 1 (KD1), parent: 9 nM
[2] = binding event 2 (KD2), parent: 91 nM

| Variant | Kd [1] | Kd [2] |
| --- | --- | --- |
| chain 1 SMPQLSPVVSLHQGQGPENSPTPGPSTAGPVCRVTPSATPDISPIHEPESSDSEEPPFLFPDDWYPPTLEPAELD | 5 nM | 94 nM |
| chain 1 SMPQLSPVVSLHQGQGPENSPTPGPSTAGPVCRVTPSATPDISPIHEPESSDSEEPPFLFPDDWYPATAEAAELD | 8 nM | 200 nM |
